Target: T1, Apaf-1 (human), O14727
T1 chain: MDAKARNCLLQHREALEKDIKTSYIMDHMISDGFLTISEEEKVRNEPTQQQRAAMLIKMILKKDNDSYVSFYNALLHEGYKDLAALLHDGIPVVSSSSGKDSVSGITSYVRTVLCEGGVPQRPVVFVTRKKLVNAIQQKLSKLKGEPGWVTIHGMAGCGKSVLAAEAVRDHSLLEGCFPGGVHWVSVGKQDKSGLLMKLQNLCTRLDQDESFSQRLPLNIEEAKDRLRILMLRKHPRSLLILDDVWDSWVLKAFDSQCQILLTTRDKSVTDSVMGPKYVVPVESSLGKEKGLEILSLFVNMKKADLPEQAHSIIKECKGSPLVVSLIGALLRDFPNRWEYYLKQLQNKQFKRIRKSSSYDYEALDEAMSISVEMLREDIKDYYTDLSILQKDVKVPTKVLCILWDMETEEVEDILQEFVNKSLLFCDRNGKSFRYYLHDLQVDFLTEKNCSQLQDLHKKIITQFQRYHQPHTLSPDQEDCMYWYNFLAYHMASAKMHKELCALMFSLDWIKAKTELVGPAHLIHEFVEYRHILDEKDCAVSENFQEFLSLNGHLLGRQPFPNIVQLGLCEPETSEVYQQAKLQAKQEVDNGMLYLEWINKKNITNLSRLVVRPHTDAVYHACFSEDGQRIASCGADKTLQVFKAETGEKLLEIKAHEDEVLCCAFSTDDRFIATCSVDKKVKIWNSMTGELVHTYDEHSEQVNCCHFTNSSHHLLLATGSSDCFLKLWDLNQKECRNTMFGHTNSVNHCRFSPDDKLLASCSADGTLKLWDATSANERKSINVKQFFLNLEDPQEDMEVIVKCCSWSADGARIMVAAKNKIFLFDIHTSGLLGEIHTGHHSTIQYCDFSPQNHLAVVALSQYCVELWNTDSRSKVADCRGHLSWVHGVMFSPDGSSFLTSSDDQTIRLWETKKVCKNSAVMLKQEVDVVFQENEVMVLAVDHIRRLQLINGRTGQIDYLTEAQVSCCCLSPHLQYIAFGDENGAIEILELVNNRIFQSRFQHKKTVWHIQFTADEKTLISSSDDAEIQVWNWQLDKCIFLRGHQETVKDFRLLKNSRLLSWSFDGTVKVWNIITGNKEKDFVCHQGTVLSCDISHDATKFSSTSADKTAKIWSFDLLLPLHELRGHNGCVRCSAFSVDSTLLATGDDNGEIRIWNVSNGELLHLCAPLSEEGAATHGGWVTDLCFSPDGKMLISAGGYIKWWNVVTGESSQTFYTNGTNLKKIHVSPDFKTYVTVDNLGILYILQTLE
Assay: cryo-EM structure
Details: remark: other sources report otherwise

stoichiometry N: 7
B1: Apaf-1, O14727 1-1248 (natural protein)
chain: MDAKARNCLLQHREALEKDIKTSYIMDHMISDGFLTISEEEKVRNEPTQQQRAAMLIKMILKKDNDSYVSFYNALLHEGYKDLAALLHDGIPVVSSSSGKDSVSGITSYVRTVLCEGGVPQRPVVFVTRKKLVNAIQQKLSKLKGEPGWVTIHGMAGCGKSVLAAEAVRDHSLLEGCFPGGVHWVSVGKQDKSGLLMKLQNLCTRLDQDESFSQRLPLNIEEAKDRLRILMLRKHPRSLLILDDVWDSWVLKAFDSQCQILLTTRDKSVTDSVMGPKYVVPVESSLGKEKGLEILSLFVNMKKADLPEQAHSIIKECKGSPLVVSLIGALLRDFPNRWEYYLKQLQNKQFKRIRKSSSYDYEALDEAMSISVEMLREDIKDYYTDLSILQKDVKVPTKVLCILWDMETEEVEDILQEFVNKSLLFCDRNGKSFRYYLHDLQVDFLTEKNCSQLQDLHKKIITQFQRYHQPHTLSPDQEDCMYWYNFLAYHMASAKMHKELCALMFSLDWIKAKTELVGPAHLIHEFVEYRHILDEKDCAVSENFQEFLSLNGHLLGRQPFPNIVQLGLCEPETSEVYQQAKLQAKQEVDNGMLYLEWINKKNITNLSRLVVRPHTDAVYHACFSEDGQRIASCGADKTLQVFKAETGEKLLEIKAHEDEVLCCAFSTDDRFIATCSVDKKVKIWNSMTGELVHTYDEHSEQVNCCHFTNSSHHLLLATGSSDCFLKLWDLNQKECRNTMFGHTNSVNHCRFSPDDKLLASCSADGTLKLWDATSANERKSINVKQFFLNLEDPQEDMEVIVKCCSWSADGARIMVAAKNKIFLFDIHTSGLLGEIHTGHHSTIQYCDFSPQNHLAVVALSQYCVELWNTDSRSKVADCRGHLSWVHGVMFSPDGSSFLTSSDDQTIRLWETKKVCKNSAVMLKQEVDVVFQENEVMVLAVDHIRRLQLINGRTGQIDYLTEAQVSCCCLSPHLQYIAFGDENGAIEILELVNNRIFQSRFQHKKTVWHIQFTADEKTLISSSDDAEIQVWNWQLDKCIFLRGHQETVKDFRLLKNSRLLSWSFDGTVKVWNIITGNKEKDFVCHQGTVLSCDISHDATKFSSTSADKTAKIWSFDLLLPLHELRGHNGCVRCSAFSVDSTLLATGDDNGEIRIWNVSNGELLHLCAPLSEEGAATHGGWVTDLCFSPDGKMLISAGGYIKWWNVVTGESSQTFYTNGTNLKKIHVSPDFKTYVTVDNLGILYILQTLE

— article PMC2874686
